Source: paper doi:10.1101/2020.10.06.327742 (bioRxiv, 2020)
The star is where a group is joined. FITC = O=C1OC2(c3ccc(O)cc3Oc3cc(O)ccc32)c2ccc(NC(=S)*)cc21

Experiments:
Test in all cases: fluorescence polarisation
[1] = target: FITC-labelled C-terminal peptide of ACE2 (FITC-…-COO-) (human)
[2] = target: FITC-labelled ACE2 peptide with the predicted PTB binding motif (FITC-…-NH2) (human)
[3] = target: AP2 μ2 (human unless Table 5 states otherwise (cells not shown))
SHANK1 PDZ = target: T1, SHANK1 PDZ (human unless Table 5 states otherwise …, UniProt Q9Y566 663-757)
T1 sequence: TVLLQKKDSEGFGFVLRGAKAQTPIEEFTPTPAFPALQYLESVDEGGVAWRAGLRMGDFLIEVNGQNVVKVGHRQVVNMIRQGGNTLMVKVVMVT

Molecule NHERF3 PDZ1 (domain or fragment) has a Kd [1] of 8 µM.

With SNX17 FERM domain (domain or fragment) the Kd [2] was 200 to 300 µM.

Work on “unphosphorylated ACE2 peptide (cytoplasmic tail region with the predicted AP2 μ2, NCK SH2 and ATG8 binding motifs)” yielded a Ki [3] of 101 µM.

Work on {FITC}-QNTDDVQTSF-OH [FITC-labelled C-terminal peptide of ACE2 (FITC-QNTDDVQTSF-COO-)] yielded a Kd (SHANK1 PDZ) of 14 µM.
